# Test results reported in the supplement of paper PMC5998384.
# Assays:
# HeLa Kyoto [1] = test: solubility in G1/S (NP-40 vs SDS abundance) (log2 ratio); higher = more soluble; settings: cell cycle stage: G1/S
# HeLa Kyoto [2] = test: melting temperature (median over replicates), in situ; higher = more thermally stable
# HeLa Kyoto [3] = test: solubility change mitosis vs G1/S (difference of NP-40 vs SDS log2 ratios) (log2 ratio difference); higher = more soluble in mitosis
# HeLa Kyoto [4] = test: thermal stability score vs G1/S (z-score of summed log2 fold changes over temperatures); higher = more thermally stable than in G1/S
# [5] = cell cycle stage: early G1 (4.5 h after nocodazole release)
# 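For melting temperature (median over replicates), in situ in this document: HeLa Kyoto cells synchronized by double thymidine or nocodazole block, proteins quantified by TMT10plex mass spectrometry, three independent biological replicates.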
# 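For solubility change mitosis vs G1/S (difference of NP-40 vs SDS log2 ratios) in this document: synchronized HeLa Kyoto cells (double thymidine block for G1/S, nocodazole release for mitosis), protein amounts in NP-40 versus SDS lysates quantified by mass spectrometry, three biological replicates.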
# 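For solubility in G1/S (NP-40 vs SDS abundance) in this document: HeLa Kyoto cells arrested at G1/S by double thymidine block, proteins quantified by TMT10plex mass spectrometry in mild NP-40 versus SDS extracts, three biological replicates.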
# 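For thermal stability score vs G1/S (z-score of summed log2 fold changes over temperatures) in this document: synchronized HeLa Kyoto cells, proteins quantified by TMT10plex mass spectrometry, three biological replicates, mitosis taken 0.5 h after nocodazole release, G1/S directly after double thymidine block.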
Sequence,solubility in G1/S (log2) (HeLa Kyoto [1]),melting temperature (HeLa Kyoto [2]; cell cycle stage: G1/S) [°C],melting temperature (HeLa Kyoto [2]; cell cycle stage: mitosis) [°C],solubility change mitosis (log2) (HeLa Kyoto [3]),thermal stability score (HeLa Kyoto [4]; [5]),thermal stability score (HeLa Kyoto [4]; cell cycle stage: mitosis)
MWSPEREAEAPAGGDPAGLLPPEWEEDEERMSFLFSAFKRSREVNSTDWDSKMGFWAPLVLSHSRRQGVVRLRLRDLQEAFQRKGSVPLGLATVLQDLLRRGELQRESDFMASVDSSWISWGVGVFLLKPLKWTLSNMLGDNKVPAEEVLVAVELLKEKAEEVYRLYQNSPLSSHPVVALSELSTLCANSCPDERTFYLVLLQLQKEKRVTVLEQNGEKIVKFARGPRAKVSPVNDVDVGVYQLMQSEQLLSRKVESLSQEAERCKEEARRACRAGKKQLALRSLKAKQRTEKRIEALHAKLDTVQGILDRIYASQTDQMVFNAYQAGVGALKLSMKDVTVEKAESLVDQIQELCDTQDEVSQTLAGGVTNGLDFDSEELEKELDILLQDTTKEPLDLPDNPRNRHFTNSVPNPRISDAELEAELEKLSLSEGGLVPSSKSPKRQLEPTLKPL [CHMP7],0.221,49.2,48.9,-0.0049,0.579,1.08
MYAVYKQAHPPTGLEFSMYCNFFNNSERNLVVAGTSQLYVYRLNRDAEALTKNDRSTEGKAHREKLELAASFSFFGNVMSMASVQLAGAKRDALLLSFKDAKLSVVEYDPGTHDLKTLSLHYFEEPELRDGFVQNVHTPRVRVDPDGRCAAMLVYGTRLVVLPFRRESLAEEHEGLVGEGQRSSFLPSYIIDVRALDEKLLNIIDLQFLHGYYEPTLLILFEPNQTWPGRVAVRQDTCSIVAISLNITQKVHPVIWSLTSLPFDCTQALAVPKPIGGVVVFAVNSLLYLNQSVPPYGVALNSLTTGTTAFPLRTQEGVRITLDCAQATFISYDKMVISLKGGEIYVLTLITDGMRSVRAFHFDKAAASVLTTSMVTMEPGYLFLGSRLGNSLLLKYTEKLQEPPASAVREAADKEEPPSKKKRVDATAGWSAAGKSVPQDEVDEIEVYGSEAQSGTQLATYSFEVCDSILNIGPCANAAVGEPAFLSEEFQNSPEPDLEIVVCSGHGKNGALSVLQKSIRPQVVTTFELPGCYDMWTVIAPVRKEEEDNPKGEGTEQEPSTTPEADDDGRRHGFLILSREDSTMILQTGQEIMELDTSGFATQGPTVFAGNIGDNRYIVQVSPLGIRLLEGVNQLHFIPVDLGAPIVQCAVADPYVVIMSAEGHVTMFLLKSDSYGGRHHRLALHKPPLHHQSKVITLCLYRDLSGMFTTESRLGGARDELGGRSGPEAEGLGSETSPTVDDEEEMLYGDSGSLFSPSKEEARRSSQPPADRDPAPFRAEPTHWCLLVRENGTMEIYQLPDWRLVFLVKNFPVGQRVLVDSSFGQPTTQGEARREEATRQGELPLVKEVLLVALGSRQSRPYLLVHVDQELLIYEAFPHDSQLGQGNLKVRFKKVPHNINFREKKPKPSKKKAEGGGAEEGAGARGRVARFRYFEDIYGYSGVFICGPSPHWLLVTGRGALRLHPMAIDGPVDSFAPFHNVNCPRGFLYFNRQGELRISVLPAYLSYDAPWPVRKIPLRCTAHYVAYHVESKVYAVATSTNTPCARIPRMTGEEKEFETIERDERYIHPQQEAFSIQLISPVSWEAIPNARIELQEWEHVTCMKTVSLRSEETVSGLKGYVAAGTCLMQGEEVTCRGRILIMDVIEVVPEPGQPLTKNKFKVLYEKEQKGPVTALCHCNGHLVSAIGQKIFLWSLRASELTGMAFIDTQLYIHQMISVKNFILAADVMKSISLLRYQEESKTLSLVSRDAKPLEVYSVDFMVDNAQLGFLVSDRDRNLMVYMYLPEAKESFGGMRLLRRADFHVGAHVNTFWRTPCRGATEGLSKKSVVWENKHITWFATLDGGIGLLLPMQEKTYRRLLMLQNALTTMLPHHAGLNPRAFRMLHVDRRTLQNAVRNVLDGELLNRYLYLSTMERSELAKKIGTTPDIILDDLLETDRVTAHF [CPSF1],-0.464,50.3,50.6,0.129,-0.361,0.307
MYFPSWLSQLYRGLSRPIRRTTQPIWGSLYRSLLQSSQRRIPEFSSFVVRTNTCGELRSSHLGQEVTLCGWIQYRRQNTFLVLRDFDGLVQVIIPQDESAASVKKILCEAPVESVVQVSGTVISRPAGQENPKMPTGEIEIKVKTAELLNACKKLPFEIKNFVKKTEALRLQYRYLDLRSFQMQYNLRLRSQMVMKMREYLCNLHGFVDIETPTLFKRTPGGAKEFLVPSREPGKFYSLPQSPQQFKQLLMVGGLDRYFQVARCYRDEGSRPDRQPEFTQIDIEMSFVDQTGIQSLIEGLLQYSWPNDKDPVVVPFPTMTFAEVLATYGTDKPDTRFGMKIIDISDVFRNTEIGFLQDALSKPHGTVKAICIPEGAKYLKRKDIESIRNFAADHFNQEILPVFLNANRNWNSPVANFIMESQRLELIRLMETQEEDVVLLTAGEHNKACSLLGKLRLECADLLETRGVVLRDPTLFSFLWVVDFPLFLPKEENPRELESAHHPFTAPHPSDIHLLYTEPKKARSQHYDLVLNGNEIGGGSIRIHNAELQRYILATLLKEDVKMLSHLLQALDYGAPPHGGIALGLDRLICLVTGSPSIRDVIAFPKSFRGHDLMSNTPDSVPPEELKPYHIRVSKPTDSKAERAH [DARS2],0.144,55.5,55.9,-0.114,-0.868,0.237
